Measurements from the Human Domainome abundance scans (Beltran et al. 2025).
± gives the uncertainty stated by the source.

B1: Endonuclease CUE2, residues 9 to 47; numbered along this chain, P36075 (parent)
chain: HESKLSILMDMFPAISKSKLQVHLLENNNDLDLTIGLLL

Variants of: B1
Assay: abundance fitness (aPCA) (normalised: wild type 0, dead -1); higher = more abundant; growth selection in yeast, the domain comes from the species named
Conditions: Saccharomyces cerevisiae (strain ATCC 204508 / S288c)

Variant | abundance fitness
HESKQSILMDMFPAISKSKLQVHLLENNNDLDLTIGLLL [L5Q] | -0.775 ± 0.081
HESKRSILMDMFPAISKSKLQVHLLENNNDLDLTIGLLL [L5R] | -0.906 ± 0.067
HESKSSILMDMFPAISKSKLQVHLLENNNDLDLTIGLLL [L5S] | -0.856 ± 0.22
HESKTSILMDMFPAISKSKLQVHLLENNNDLDLTIGLLL [L5T] | -0.338 ± 0.072
HESKVSILMDMFPAISKSKLQVHLLENNNDLDLTIGLLL [L5V] | -0.002 ± 0.037
HESKWSILMDMFPAISKSKLQVHLLENNNDLDLTIGLLL [L5W] | -0.779 ± 0.078
HESKLAILMDMFPAISKSKLQVHLLENNNDLDLTIGLLL [S6A] | 0.041 ± 0.034
HESKLEILMDMFPAISKSKLQVHLLENNNDLDLTIGLLL [S6E] | -0.107 ± 0.053
HESKLGILMDMFPAISKSKLQVHLLENNNDLDLTIGLLL [S6G] | -0.073 ± 0.032
HESKLHILMDMFPAISKSKLQVHLLENNNDLDLTIGLLL [S6H] | -0.38 ± 0.089
HESKLLILMDMFPAISKSKLQVHLLENNNDLDLTIGLLL [S6L] | -0.098 ± 0.042
HESKLMILMDMFPAISKSKLQVHLLENNNDLDLTIGLLL [S6M] | -0.221 ± 0.09
HESKLPILMDMFPAISKSKLQVHLLENNNDLDLTIGLLL [S6P] | -0.342 ± 0.072
HESKLQILMDMFPAISKSKLQVHLLENNNDLDLTIGLLL [S6Q] | 0 ± 0.12
HESKLRILMDMFPAISKSKLQVHLLENNNDLDLTIGLLL [S6R] | -0.027 ± 0.033
HESKLTILMDMFPAISKSKLQVHLLENNNDLDLTIGLLL [S6T] | -0.011 ± 0.045
HESKLWILMDMFPAISKSKLQVHLLENNNDLDLTIGLLL [S6W] | -0.443 ± 0.074
HESKLYILMDMFPAISKSKLQVHLLENNNDLDLTIGLLL [S6Y] | 0.32 ± 0.45
HESKLSALMDMFPAISKSKLQVHLLENNNDLDLTIGLLL [I7A] | 0.071 ± 0.042
HESKLSCLMDMFPAISKSKLQVHLLENNNDLDLTIGLLL [I7C] | 0.153 ± 0.26
HESKLSDLMDMFPAISKSKLQVHLLENNNDLDLTIGLLL [I7D] | 0.22 ± 0.28
HESKLSELMDMFPAISKSKLQVHLLENNNDLDLTIGLLL [I7E] | -0.158 ± 0.065

Variant | abundance fitness
HESKLSFLMDMFPAISKSKLQVHLLENNNDLDLTIGLLL [I7F] | -0.282 ± 0.076
HESKLSGLMDMFPAISKSKLQVHLLENNNDLDLTIGLLL [I7G] | -0.544 ± 0.039
HESKLSKLMDMFPAISKSKLQVHLLENNNDLDLTIGLLL [I7K] | 0.078 ± 0.096
HESKLSMLMDMFPAISKSKLQVHLLENNNDLDLTIGLLL [I7M] | 0.058 ± 0.071
HESKLSPLMDMFPAISKSKLQVHLLENNNDLDLTIGLLL [I7P] | -0.633 ± 0.17
HESKLSQLMDMFPAISKSKLQVHLLENNNDLDLTIGLLL [I7Q] | 0.137 ± 0.072
HESKLSSLMDMFPAISKSKLQVHLLENNNDLDLTIGLLL [I7S] | -0.114 ± 0.065
HESKLSTLMDMFPAISKSKLQVHLLENNNDLDLTIGLLL [I7T] | 0.059 ± 0.051
HESKLSVLMDMFPAISKSKLQVHLLENNNDLDLTIGLLL [I7V] | 0.095 ± 0.036
HESKLSWLMDMFPAISKSKLQVHLLENNNDLDLTIGLLL [I7W] | -0.406 ± 0.067
HESKLSIAMDMFPAISKSKLQVHLLENNNDLDLTIGLLL [L8A] | -1.02 ± 0.18
HESKLSIDMDMFPAISKSKLQVHLLENNNDLDLTIGLLL [L8D] | -1.16 ± 0.42
HESKLSIEMDMFPAISKSKLQVHLLENNNDLDLTIGLLL [L8E] | -0.931 ± 0.09
HESKLSIFMDMFPAISKSKLQVHLLENNNDLDLTIGLLL [L8F] | -0.701 ± 0.18
HESKLSIGMDMFPAISKSKLQVHLLENNNDLDLTIGLLL [L8G] | -0.913 ± 0.065
HESKLSIKMDMFPAISKSKLQVHLLENNNDLDLTIGLLL [L8K] | -0.968 ± 0.15
HESKLSIMMDMFPAISKSKLQVHLLENNNDLDLTIGLLL [L8M] | -0.631 ± 0.12
HESKLSIQMDMFPAISKSKLQVHLLENNNDLDLTIGLLL [L8Q] | -0.96 ± 0.33
HESKLSIRMDMFPAISKSKLQVHLLENNNDLDLTIGLLL [L8R] | -0.883 ± 0.084
HESKLSISMDMFPAISKSKLQVHLLENNNDLDLTIGLLL [L8S] | -0.915 ± 0.23
HESKLSIVMDMFPAISKSKLQVHLLENNNDLDLTIGLLL [L8V] | -0.596 ± 0.046
HESKLSIWMDMFPAISKSKLQVHLLENNNDLDLTIGLLL [L8W] | -0.947 ± 0.13

Variant | abundance fitness
HESKLSILADMFPAISKSKLQVHLLENNNDLDLTIGLLL [M9A] | -0.042 ± 0.042
HESKLSILCDMFPAISKSKLQVHLLENNNDLDLTIGLLL [M9C] | -0.159 ± 0.057
HESKLSILDDMFPAISKSKLQVHLLENNNDLDLTIGLLL [M9D] | -0.255 ± 0.068
HESKLSILEDMFPAISKSKLQVHLLENNNDLDLTIGLLL [M9E] | -0.03 ± 0.054
HESKLSILGDMFPAISKSKLQVHLLENNNDLDLTIGLLL [M9G] | -0.011 ± 0.033
HESKLSILKDMFPAISKSKLQVHLLENNNDLDLTIGLLL [M9K] | -0.155 ± 0.083
HESKLSILLDMFPAISKSKLQVHLLENNNDLDLTIGLLL [M9L] | 0.107 ± 0.042
HESKLSILNDMFPAISKSKLQVHLLENNNDLDLTIGLLL [M9N] | -0.402 ± 0.1
HESKLSILPDMFPAISKSKLQVHLLENNNDLDLTIGLLL [M9P] | -1.14 ± 0.28
HESKLSILQDMFPAISKSKLQVHLLENNNDLDLTIGLLL [M9Q] | -0.013 ± 0.07
HESKLSILRDMFPAISKSKLQVHLLENNNDLDLTIGLLL [M9R] | -0.049 ± 0.032
HESKLSILSDMFPAISKSKLQVHLLENNNDLDLTIGLLL [M9S] | -0.011 ± 0.042
HESKLSILTDMFPAISKSKLQVHLLENNNDLDLTIGLLL [M9T] | -0.054 ± 0.073
HESKLSILVDMFPAISKSKLQVHLLENNNDLDLTIGLLL [M9V] | 0.014 ± 0.052
HESKLSILWDMFPAISKSKLQVHLLENNNDLDLTIGLLL [M9W] | -0.28 ± 0.059
HESKLSILYDMFPAISKSKLQVHLLENNNDLDLTIGLLL [M9Y] | -0.057 ± 0.055
HESKLSILMCMFPAISKSKLQVHLLENNNDLDLTIGLLL [D10C] | -0.123 ± 0.11
HESKLSILMEMFPAISKSKLQVHLLENNNDLDLTIGLLL [D10E] | 0.052 ± 0.038
HESKLSILMFMFPAISKSKLQVHLLENNNDLDLTIGLLL [D10F] | -0.463 ± 0.18
HESKLSILMGMFPAISKSKLQVHLLENNNDLDLTIGLLL [D10G] | -0.099 ± 0.032
